Where no end group is shown, it is not given here. [ ]: non-standard residue; d: D form. The star is where a group is joined. Myristoyl = CCCCCCCCCCCCCC(=O)*; Lauroyl = CCCCCCCCCCCC(=O)*; Decanoyl = CCCCCCCCCC(=O)*; NMeA = CN[C@@H](C)C(=O)O; Nle = CCCC[C@H](N)C(=O)O; Octanoyl = CCCCCCCC(=O)*
Legend:
[1] = molecular target: T1, human PrRP receptor, GPR10, transfected in CHO cells (human, UniProt P49683 1-370); assay: competition with 125I-human PrRP31 on CHO cells with transfected human GPR10
T1 construct: whole, on cells; also called human GPR10 receptor; the human receptor GPR10 in CHO cells
T1 sequence (looked up): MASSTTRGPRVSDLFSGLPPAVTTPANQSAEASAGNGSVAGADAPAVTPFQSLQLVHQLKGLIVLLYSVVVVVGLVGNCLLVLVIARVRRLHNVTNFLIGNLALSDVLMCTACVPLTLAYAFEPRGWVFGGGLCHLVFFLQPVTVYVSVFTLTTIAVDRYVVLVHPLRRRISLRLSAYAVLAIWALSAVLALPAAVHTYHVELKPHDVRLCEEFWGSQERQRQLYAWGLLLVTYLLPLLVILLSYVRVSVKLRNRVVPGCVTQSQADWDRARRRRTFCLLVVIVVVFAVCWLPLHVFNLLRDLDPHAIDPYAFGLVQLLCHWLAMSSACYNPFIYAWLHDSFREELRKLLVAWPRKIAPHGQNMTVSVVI
Protocol: CHO cells with transfected human PrRP receptor, GPR10 (Perkin Elmer, USA) were grown on 24-well plates coated with polyethyleneimine. The cells were grown to the optimal density of 40-80 thousand cells per well.
(§1) Plates were incubated for 60 minutes at room temperature. After incubation, the cells were solubilized in 0.1 mol/l solution of NaOH and the radioactivity bound to the cells was counted using a γ-counter. The experiments were performed in duplicate and repeated at least three times.

[2] = molecular target: T2, rat PrRP receptor in RC-4B/C cells (rat, UniProt Q64121 1-370); assay: competition with 125I-rat PrRP31 on RC-4B/C cells
T2 construct: whole, on cells; also called the rat receptor; GPR10
T2 sequence (looked up): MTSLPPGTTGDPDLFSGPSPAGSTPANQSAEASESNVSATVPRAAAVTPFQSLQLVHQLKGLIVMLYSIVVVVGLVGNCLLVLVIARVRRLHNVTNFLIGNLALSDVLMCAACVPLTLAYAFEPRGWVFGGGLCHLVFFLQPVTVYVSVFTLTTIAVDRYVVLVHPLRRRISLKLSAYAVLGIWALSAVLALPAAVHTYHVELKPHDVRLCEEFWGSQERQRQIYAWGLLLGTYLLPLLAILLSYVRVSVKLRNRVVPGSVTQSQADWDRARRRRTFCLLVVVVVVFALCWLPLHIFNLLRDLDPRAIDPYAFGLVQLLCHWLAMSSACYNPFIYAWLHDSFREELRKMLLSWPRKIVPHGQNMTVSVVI
Protocol: The rat pituitary cell line RC-4B/C (ATCC, Manassas, USA) was grown on 24-well plates which had their bottom coated with polyethyleneimine. The cells were grown to the optimal density of 300-450 thousand per well.
as §1
For evaluation of competitive binding experiments, the program Graph Pad Prism Software (San Diego, Calif., USA) was used. A method of nonlinear regression assuming one-site binding was used.

Binder | Ki [1] [nM] | Ki [2] [nM]
Octanoyl-TPDINPAWYASRGIRPVGRF-NH2 (SMILES CCCCCCCC(=O)N[C@H](C(=O)N1CCC[C@H]1C(=O)N[C@@H](CC(=O)O)C(=O)N[C@H](C(=O)N[C@@H](CC(N)=O)C(=O)N1CCC[C@H]1C(=O)N[C@@H](C)C(=O)N[C@@H](Cc1c[nH]c2ccccc12)C(=O)N[C@@H](Cc1ccc(O)cc1)C(=O)N[C@@H](C)C(=O)N[C@@H](CO)C(=O)N[C@@H](CCCNC(=N)N)C(=O)NCC(=O)N[C@H](C(=O)N[C@@H](CCCNC(=N)N)C(=O)N1CCC[C@H]1C(=O)N[C@H](C(=O)NCC(=O)N[C@@H](CCCNC(=N)N)C(=O)N[C@@H](Cc1ccccc1)C(N)=O)C(C)C)[C@@H](C)CC)[C@@H](C)CC)[C@@H](C)O) [analog no. 52] | 3.02 | –
TPDINPAWY[NMeA]SRGIRPVGRF-NH2 (N-terminus assumed; SMILES CC[C@H](C)[C@H](NC(=O)CNC(=O)[C@H](CCCNC(=N)N)NC(=O)[C@H](CO)NC(=O)[C@H](C)N(C)C(=O)[C@H](Cc1ccc(O)cc1)NC(=O)[C@H](Cc1c[nH]c2ccccc12)NC(=O)[C@H](C)NC(=O)[C@@H]1CCCN1C(=O)[C@H](CC(N)=O)NC(=O)[C@@H](NC(=O)[C@H](CC(=O)O)NC(=O)[C@@H]1CCCN1C(=O)[C@@H](N)[C@@H](C)O)[C@@H](C)CC)C(=O)N[C@@H](CCCNC(=N)N)C(=O)N1CCC[C@H]1C(=O)N[C@H](C(=O)NCC(=O)N[C@@H](CCCNC(=N)N)C(=O)N[C@@H](Cc1ccccc1)C(N)=O)C(C)C) [analog no. 40] | 8.72 | 49.4
Myristoyl-TPDINPAWYASRPFRPVGRF-NH2 (SMILES CCCCCCCCCCCCCC(=O)N[C@H](C(=O)N1CCC[C@H]1C(=O)N[C@@H](CC(=O)O)C(=O)N[C@H](C(=O)N[C@@H](CC(N)=O)C(=O)N1CCC[C@H]1C(=O)N[C@@H](C)C(=O)N[C@@H](Cc1c[nH]c2ccccc12)C(=O)N[C@@H](Cc1ccc(O)cc1)C(=O)N[C@@H](C)C(=O)N[C@@H](CO)C(=O)N[C@@H](CCCNC(=N)N)C(=O)N1CCC[C@H]1C(=O)N[C@@H](Cc1ccccc1)C(=O)N[C@@H](CCCNC(=N)N)C(=O)N1CCC[C@H]1C(=O)N[C@H](C(=O)NCC(=O)N[C@@H](CCCNC(=N)N)C(=O)N[C@@H](Cc1ccccc1)C(N)=O)C(C)C)[C@@H](C)CC)[C@@H](C)O) [analog no. 45] | 0.58 | 0.84
TPDINPAWYASRPFRPVGRF-NH2 [analog no. 44] | 1.73 | 2.14
Lauroyl-TPDINPAWYASRGIRPVGRF-NH2 (SMILES CCCCCCCCCCCC(=O)N[C@H](C(=O)N1CCC[C@H]1C(=O)N[C@@H](CC(=O)O)C(=O)N[C@H](C(=O)N[C@@H](CC(N)=O)C(=O)N1CCC[C@H]1C(=O)N[C@@H](C)C(=O)N[C@@H](Cc1c[nH]c2ccccc12)C(=O)N[C@@H](Cc1ccc(O)cc1)C(=O)N[C@@H](C)C(=O)N[C@@H](CO)C(=O)N[C@@H](CCCNC(=N)N)C(=O)NCC(=O)N[C@H](C(=O)N[C@@H](CCCNC(=N)N)C(=O)N1CCC[C@H]1C(=O)N[C@H](C(=O)NCC(=O)N[C@@H](CCCNC(=N)N)C(=O)N[C@@H](Cc1ccccc1)C(N)=O)C(C)C)[C@@H](C)CC)[C@@H](C)CC)[C@@H](C)O) [analog no. 54] | 2.41 | –
QHSMETRTPDINPAWYTGRGIRPVGRF-NH2 (shortened PrRP31 analog) [analog no. 48] | 5.92 | 2.61
Myristoyl-QHSMETRTPDINPAWYTGRGIRPVGRF-NH2 (SMILES CCCCCCCCCCCCCC(=O)N[C@@H](CCC(N)=O)C(=O)N[C@@H](Cc1c[nH]cn1)C(=O)N[C@@H](CO)C(=O)N[C@@H](CCSC)C(=O)N[C@@H](CCC(=O)O)C(=O)N[C@H](C(=O)N[C@@H](CCCNC(=N)N)C(=O)N[C@H](C(=O)N1CCC[C@H]1C(=O)N[C@@H](CC(=O)O)C(=O)N[C@H](C(=O)N[C@@H](CC(N)=O)C(=O)N1CCC[C@H]1C(=O)N[C@@H](C)C(=O)N[C@@H](Cc1c[nH]c2ccccc12)C(=O)N[C@@H](Cc1ccc(O)cc1)C(=O)N[C@H](C(=O)NCC(=O)N[C@@H](CCCNC(=N)N)C(=O)NCC(=O)N[C@H](C(=O)N[C@@H](CCCNC(=N)N)C(=O)N1CCC[C@H]1C(=O)N[C@H](C(=O)NCC(=O)N[C@@H](CCCNC(=N)N)C(=O)N[C@@H](Cc1ccccc1)C(N)=O)C(C)C)[C@@H](C)CC)[C@@H](C)O)[C@@H](C)CC)[C@@H](C)O)[C@@H](C)O, lipidated shortened PrRP31 analog) [analog no. 49] | 6.93 | 0.37
Decanoyl-TPDINPAWYASRGIRPVGRF-NH2 (SMILES CCCCCCCCCC(=O)N[C@H](C(=O)N1CCC[C@H]1C(=O)N[C@@H](CC(=O)O)C(=O)N[C@H](C(=O)N[C@@H](CC(N)=O)C(=O)N1CCC[C@H]1C(=O)N[C@@H](C)C(=O)N[C@@H](Cc1c[nH]c2ccccc12)C(=O)N[C@@H](Cc1ccc(O)cc1)C(=O)N[C@@H](C)C(=O)N[C@@H](CO)C(=O)N[C@@H](CCCNC(=N)N)C(=O)NCC(=O)N[C@H](C(=O)N[C@@H](CCCNC(=N)N)C(=O)N1CCC[C@H]1C(=O)N[C@H](C(=O)NCC(=O)N[C@@H](CCCNC(=N)N)C(=O)N[C@@H](Cc1ccccc1)C(N)=O)C(C)C)[C@@H](C)CC)[C@@H](C)CC)[C@@H](C)O) [analog no. 53] | 2.41 | –
TPDINPAWYTGRGARPFGRF-NH2 [analog no. 42] | 583 | 655
Myristoyl-TPDINPAWYTGRGARPFGRF-NH2 (SMILES CCCCCCCCCCCCCC(=O)N[C@H](C(=O)N1CCC[C@H]1C(=O)N[C@@H](CC(=O)O)C(=O)N[C@H](C(=O)N[C@@H](CC(N)=O)C(=O)N1CCC[C@H]1C(=O)N[C@@H](C)C(=O)N[C@@H](Cc1c[nH]c2ccccc12)C(=O)N[C@@H](Cc1ccc(O)cc1)C(=O)N[C@H](C(=O)NCC(=O)N[C@@H](CCCNC(=N)N)C(=O)NCC(=O)N[C@@H](C)C(=O)N[C@@H](CCCNC(=N)N)C(=O)N1CCC[C@H]1C(=O)N[C@@H](Cc1ccccc1)C(=O)NCC(=O)N[C@@H](CCCNC(=N)N)C(=O)N[C@@H](Cc1ccccc1)C(N)=O)[C@@H](C)O)[C@@H](C)CC)[C@@H](C)O) [analog no. 43] | 8.47 | 7.21
[Nle]ETRTPDINPAWYTGRGIRPVGRF-NH2 (N-terminus assumed; SMILES CCCC[C@H](N)C(=O)N[C@@H](CCC(=O)O)C(=O)N[C@H](C(=O)N[C@@H](CCCNC(=N)N)C(=O)N[C@H](C(=O)N1CCC[C@H]1C(=O)N[C@@H](CC(=O)O)C(=O)N[C@H](C(=O)N[C@@H](CC(N)=O)C(=O)N1CCC[C@H]1C(=O)N[C@@H](C)C(=O)N[C@@H](Cc1c[nH]c2ccccc12)C(=O)N[C@@H](Cc1ccc(O)cc1)C(=O)N[C@H](C(=O)NCC(=O)N[C@@H](CCCNC(=N)N)C(=O)NCC(=O)N[C@H](C(=O)N[C@@H](CCCNC(=N)N)C(=O)N1CCC[C@H]1C(=O)N[C@H](C(=O)NCC(=O)N[C@@H](CCCNC(=N)N)C(=O)N[C@@H](Cc1ccccc1)C(N)=O)C(C)C)[C@@H](C)CC)[C@@H](C)O)[C@@H](C)CC)[C@@H](C)O)[C@@H](C)O, shortened PrRP31 analog) [analog no. 46] | 3.44 | 2.94
Myristoyl-[Nle]ETRTPDINPAWYTGRGIRPVGRF-NH2 (SMILES CCCCCCCCCCCCCC(=O)N[C@@H](CCCC)C(=O)N[C@@H](CCC(=O)O)C(=O)N[C@H](C(=O)N[C@@H](CCCNC(=N)N)C(=O)N[C@H](C(=O)N1CCC[C@H]1C(=O)N[C@@H](CC(=O)O)C(=O)N[C@H](C(=O)N[C@@H](CC(N)=O)C(=O)N1CCC[C@H]1C(=O)N[C@@H](C)C(=O)N[C@@H](Cc1c[nH]c2ccccc12)C(=O)N[C@@H](Cc1ccc(O)cc1)C(=O)N[C@H](C(=O)NCC(=O)N[C@@H](CCCNC(=N)N)C(=O)NCC(=O)N[C@H](C(=O)N[C@@H](CCCNC(=N)N)C(=O)N1CCC[C@H]1C(=O)N[C@H](C(=O)NCC(=O)N[C@@H](CCCNC(=N)N)C(=O)N[C@@H](Cc1ccccc1)C(N)=O)C(C)C)[C@@H](C)CC)[C@@H](C)O)[C@@H](C)CC)[C@@H](C)O)[C@@H](C)O, lipidated shortened PrRP31 analog) [analog no. 47] | 5.48 | 0.45

From patent publication US9937235B2, “Lipidated peptides as anti-obesity agents” (USTAV ORGANICKE CHEMIE A BIOCHEMIE AKADEMIE VED CR, V.V.I, priority 2012, dated 2018)
